# Measured values as given in patent US8236925 (UNIVERSITY OF MINNESOTA, dated 2012).
# B1: E. coli dihydrofolate reductase (DHFR) (enzyme)
# chain: MISLIAALAVDRVIGMENAMPWNLPADLAWFKRNTLNKPVIMGRHTWESIGRPLPGRKNIILSSQPGTDDRVTWVKSVDEAIAACGDVPEIMVIGGGRVYEQFLPKAQKLYLTHIDAEVEGDTHFPDYEPDDWESVFSEFHDADAQNSHSYCFEILERR
# Target: the molecule itself
protein,measurement,value
B1,selectivity of dimerization for E. coli DHFR relative to mouse DHFR,> 1e+07
same,ΔG of favorable protein-protein interactions,≥ -3.1 kcal/mol
